Measured values from publication doi:10.1101/625400, “Massively parallel reporter assays combined with cell-type specific eQTL informed multiple melanoma loci and identified a pleiotropic function of HIV-1 restriction gene, MX2, in melanoma promotion”.

Molecular target: YY1 full-length recombinant (Active Motif 31332) (UniProt P25490 1-414)
Assay: EMSA; 100-750 ng YY1, 10 mM Mg2+; EMSA: 10 mM Tris pH 7.5, 50 mM KCl, 1 mM DTT, 10 mM MgCl2, 4 C, 30 min (poly d(I-C) with nuclear extract)
Conditions: protein: commercial; label: 5' biotin (both strands); blunt

Sequence of YY1 full-length recombinant (Active Motif 31332) (P25490 whole entry): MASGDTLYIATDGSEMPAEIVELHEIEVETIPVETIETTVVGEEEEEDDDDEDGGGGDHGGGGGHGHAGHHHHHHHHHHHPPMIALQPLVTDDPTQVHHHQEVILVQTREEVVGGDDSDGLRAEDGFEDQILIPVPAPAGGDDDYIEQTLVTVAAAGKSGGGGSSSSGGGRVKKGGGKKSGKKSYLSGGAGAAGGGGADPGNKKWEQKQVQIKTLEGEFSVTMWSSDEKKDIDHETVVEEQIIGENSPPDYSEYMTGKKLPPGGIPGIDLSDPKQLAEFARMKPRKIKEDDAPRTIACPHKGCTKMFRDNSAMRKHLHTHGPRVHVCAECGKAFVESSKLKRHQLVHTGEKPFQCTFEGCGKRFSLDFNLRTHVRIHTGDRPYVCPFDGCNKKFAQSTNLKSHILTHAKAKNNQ

B1: rs398206 A allele EMSA probe (dsDNA)
DNA 1: GTCCGTCCCAACATGGCGGGT
DNA 2: ACCCGCCATGTTGGGACGGAC
binding result: binds
